# From patent US12551596B2, “Delivery systems for administration of cationic biological actives” (Allvivo Vascular, Inc., priority 2017, dated 2026)
# Experiment: Stability of ASP-1 in PU 077 catheter coating after EO sterilization and storage, HPLC
# Type: physicochemical
# Details: coated on catheters, EO sterilized, stored at room temperature up to 9 months
# Description: Composition (lot K-132, Table 9.1) comprising ASP-1 peptide (SEQ ID NO: 17 in Table A), custom synthesized hydrophilic medical grade polyurethane (PU 077), polyoxyl 15 hydroxystearate (PEG-15-HS) and citric acid monohydrate (CAxH2O) was prepared by dissolving components in MEK/ethanol solvent and dip coated on 7 Fr triple lumen catheters.
# The obtained ASP-1 coated catheters were sterilized by ethylene oxide (EO) gas, vacuum dried and pouched in aluminum foil bags supplied with a desiccant pouch. Peptide purity and recovery from coatings before EO sterilization and after EO sterilization and storage was measured by HPLC after full extraction from catheters.
sequence,measurement,value
RRWVRRVRRWVRRVVRVVRRWVRR (Antimicrobial peptide) [ASP-1],stability of ASP-1 peptide in catheter coating,good stability
